A protein production outcome set (Wang et al. 2014)

Experiment: label from the status in PepcDB records

Row | Sequence | protein production
1 | MSVEAAKNARELLLKEYRAVLSTHSKKWPGFPFGSVVPYCLDAEGRPLILISRIAQHTHNLQADPRCSMLVGERGAEDIQAVGRLTLLAEARQLAEEEVAAAAERYYRYFPESADYHRVHDFDFWVLQPVQWRFIGGFGAIHWLAAERVPLANPFAGEAERGMVEHMNSDHAAAIAHYVELAGLPAHAAAQLAGIDTEGFHLRIGQGLHWLPFPAACGNPGAVRQALVQLARAERWPTVEPEQG | not failed
2 | MARLIVNALVSVPLAEIEIGFVRSGGAGGQNVNKLATAAHLRFDIAASSLPETCKTRLLDHRDRRMTAEGIIVIKAQRFGTQEKNREDALARLRGLILQALAQRRPRKPTRPTLAAKKKRLDEKTRHGEIKRLRRRIGDLEHHHHHH | failed
3 | MLLKQRINANVLVQDGDEPSEDPNELIKQVFALTQESNQLICRIHSTNAQAKLEDGKILLSLLSLRDSYAEQHKILIDAIANTHREPDRYSSREIKWKKVIPVSSLQKQADDISAKLRDLNVKIQAANWQIDLINLEHHHHHH | failed
4 | MKMDTGALTFQQKIYWLVKQIPLGRVATYGQIAALCGWPRHGRYVGYALYRVAPNSDIPWHRVVNAQGKISYAPQRRGTDELQRWRLAAEGIIFTAGLEHHHHHH | failed
5 | MSLMLSHNPIVEPFALAHATIVTGDKAGTILRNMTIVVGADGRIEQVAPSIETSIPAEYHYLDGTGKIVMPGLINAHTHLFSQGKPLNPKLATPKGQRMVATFAHSPLGKPYMAATVKHNATTLLESGVTTIRTLGDVGYEVVTLRDQIDAGQILGPRILASGPLMAIPEGHGAPLIALTSGTPEEARTAVAQNLKAGVNAIKIAATGGVTDAQEIGEAGSPQMSVEQMRAICDEAHQYGVIVGAHAQSPEGVRRSLLAGVDTIEHGSVLDDELIGMFRHNPNALRGYSALIPTLSAGLPLTLLGQDVTGITDIQLENSKNVVGGMVSGARQAHEAGLMIGVGTDTGMTFVPQYATWRELELLVAYAGFSPAEALHAATAVNASILGVDAETGSLEVGKSADLLVLNANPLDDLRALEHPALVIAAGHPVWRPGPKRFADIDALLDEAYAEGHHHHHH | not failed
6 | TSTFYELFPKTFPKKLPIWTIDQSRLRKEYRQLQAQHHPDMAQQGSEQSSTLNQAYHTLKDPLRRSQYMLKLLRNI | failed
7 | MAEIQFSKGVAETVVPEVRLSKSKNGQSGMAKFYFLEPTILAKESTDDITGMYLIDDEGEIITREVKGKFINGRPTAIEATVILNSQPEWDRFMRFMERYGAENGLGFSKSELEHHHHHH | not failed
8 | MRNSKSLKLTIMGIGIALNIIGAFIALNLRLPIYLDSIGTIMVGFVLGPVYGMATGVLGSVVSGITFDIYSLYFAPVQIFTGFFAGYFYEKGLMKGKKLFLSVFVMTLFVSFTGACLTAYIFGGITSSGSSYIIVILNNLGVNPVVSAFITQFLTDYCDKLVAVLIMLQVVVRLPKNILLRVQNN | failed
9 | AIAASGKRKGLSFDDKKTRLLELFNETCDFYTLKELEKIAPKLKGIITQSVKDVLQSLVDDDLVNSDKCGVQTIYWCLPSEAVAKRQRRLDALQQQLAEKRQKLTALQRQLVQVQAGREDSVERTAVLERLAACEAAWRERQRTLESYLECDPDVLAQRETETKTLIEQANRWTDNLYVIRSYVQRNLGVDLDLFDQQFELKPALQYLE | failed
10 | MIEFITPRTFLFSTQTVVFSVLLFVFYIFYRTFSRKYVKYWLMSIGALNFSYLIKSFVPYSSRNFSSDSWQILAELLLQIFQYSFLIFLIFGVYIAKNNKELSKEILSGGIGAIIILSVISTMFFAFDPSQAFNHFYLTISLPSFIFGCTFLSLACYLLFDKKSYFSSQVLMYFSAIFGLRYLMHSFISIVALTEPWFRQLELFLLYFDVAAHSILGFTLLIWMQGAERFATLSAISRAQYLGKHDSLTGALNREQVMAKLSDKMQELTHANKINKNQMKLAVFLIDIKQFKFINDTYGLKVGDFILGEIASRLNHSVFIPQAVGRLSGDSFMFVIEFEQISHVDRAVNHIHELIERCFRYEQQEITIQGSVGYCFYPDDADKSEDLLQKSNLALHHAETNNIPSVAFEEGMQAQGRHLVLMEKQLRSAIANDEFVLYYQPQLNLFTNKLEGVEALVRWQHPEKGLLSPGDFLTELETLGMHNEFDNYILVKACQASERWFKLYQRRVAIAVNITAVEFQNEQLVTNIQMLLHKYGIPSKYIELEITENVVMTDITRAMDSIVKLQSMGIKVSIDDFGTGYSSLAYLRDLPIDKIKIDRSFINEVAINDSDLTIVKSMVDLSHGLGKRVLAEGVETIEQLNLLRHLGCDAVQGYFISKPLPESKLVRYLKKK | failed
11 | MALVPVYCLCRQPYNVNHFMIECGLCQDWFHGSCVGIEEENAVDIDIYHCPDCEAVFGPSIMKNWH | not failed
12 | MRSFILRARSAPTDSQRLLDEIGGKCHTEILAHCMMNSLFTAQSHREDVVIHLVLESTRDYSRTITVEANEISDVGGFHEAALIALLVKALDASVGMGKEQTRVVQPGLTVRTISFEALLGELAEHHSLYMMDKKGDSIRDIKIGPNPCFILTDHIPMPKKSGNSMKRLGVEKISLGPKMLFASQCVTLIHNEIDHQEA | not failed
13 | MPDIAVLVKASLNPDMARIGPDDSVDLNSIPLKISDIDRNAVEEAVKLKEKLGGKLYAVSVLTWGPVKLRNKDLRLAVQEALAKGVDEAIVVADDELTPGDQTTTAKAIKAALEKHGVKPELILAGEATIDEVTSQVPGRLASLLGYKYLSFVRKLDVDNGRIIAERDLEDYIEVVEASLPAVVSVTQEINEPRPPTLLQIRRAARKPVKEYSASELENVGKPVRRIVQIRGVQVKRKQQIIEGDNLEEIAEKLIEALAREGVLKL | failed
14 | MSEKREKQTKSKRRIWRGVTTATASLLTLSMSATLVIDGFRTDIDKFLGTQSTKMVTEDVSAEDYTFQSDYSSTTELLDSIEDLGERMNEEGSVLLKNENAALPLSKEETQKISLLGFSSYYPVQGGDFGSTLSENKGTDADTVDMLEAFESKGFEMNPTLKKMYQGLKEEFKSEAVLPWGVTTYYRATAPATTGVFTSLEPETATLDEAEPNWKKSMTDYNVMIVTLARAAGENANYTPGEDGVNPEQDLNQADPLGLSDTERAIIDEAVNAKKENNGKLIVMLNNASAMEIEEIKNNTGVDAILEVGLPGGYGFYGVADVLSGEVNPSGHLADTYAVDNSSSPAAQNYGNYEWTNADSAYSINSEIVEAEGIYTGYKYYETRYADTVLGQGNASDKTGSSNGKAWNYEDEVSYPFGYGLSYTTFSQTLDSLDVNLEDKTVTAKVTVKNTGDVAGKDVVQLYTSLPYTEYDKEHAVEKAAVQLLDYEKTGVLQPGESVTVEITADAQDMASWDSTCDNAAGTKGNWILDAGDYYFTVGNGSHEAVNNVLAAQGMTKANGMTDAGNAANVKKWTLDTFDSETFAYSKNGTAVENQLQDMDLNYYMPDTVTYLSRSDWKATWPKTYKDLTATDEMIEVMKNNLVEIKEQGNPDEVTFGEDNGLTLASLKGETDLTNEKWTDLIDQITLEEAMIRTGFGGTSTKSIVSIVSPEAVQNDGPNGFNSYTLGQYANTDTDSADPYVIDPDDKNLNYKFGTMSNETVIAQTFSKEMAAEYGAVTGNYSIWSNLPILWGAGTNLHRTPYNARNHEYYSEDAILTAYQAAAYIAAGKEYGCIIAPKHFAFNDTEINRSGIATFMTEQKARENELRGTQASVEDAQTLGMMTTFNRIGCTAGNAHYGLLMNILRKEWGFQGLMSEDFIQDANYSVLKEAVHCGVTMTCNTGDSNMEAVTAKWNYWTTEAVSKDASMMQDLKNVMMWQNYALANSNAMDGLNETSQIKDVRTWYDNALTATSAVLALLTLAAAAMYIRDAKRRKNS | failed
15 | MSVQLKCDAVNCVYNRSHLCSAEEIEVQGGETTGGDATFCGTFSSKSLGNFVSSLGNMNYSGSLKQAVSAEPIMDPKVHCNAVNCTYNDQRYCHADQVEIRNEVSHTAEELEHHHHHH | not failed
16 | STRPVGGTEYSWCRAIDGGTGIAVIALLLSRTPKLQNLQNTLDKLQIYHPTLRSNIRFDASANSFSFVVTSAADSHVEIHPFDSVSTAQIIRDSDDPCADPHRIILEHEMNKNTWINPHRWIKSESRVFIVSLYDLTDDGEQRILTFRLNTAAVDRTAAVTLLREFMKETAADGFGNGPVVAATETAVGLGKAIEELIPSGKGDKPFWARGIDVLGYSLNAFRFSNLNFVDAENSNRRSQLVRLKLDRDQTLKLVAGCKARGLKLWAALASSALIAAYSSKNLPPYQGEKYAVVTLSDCRSILEPPLTSNDFGFYHAGILHTHDLTGEEKLWDLAKRCYDSFTSSKNSNKQFTDMSDLNFLMCKAIENPNLTPSSSLRTAFISIFEDPVIDESPEPELASLGVQDYIGCASIHGVGPSVAVFDALRDGKLDCAFVYPSPLHSREQMDGLIQHMKTILLEGSASSF | not failed
17 | MTPYTEVELTLIQYVLVVVSGFIIGLILGLIGGGGSILAVPLLLYFVGLGNDSSSFGNYSNITHLVLGTSALAVGLNAYINSFIHWRKGNVKVFEGVVFTIPGVIGSILGAYFGYLTTGNLILIMFGIVMILIGLRMIKSKCKEGSNETKGSGDTGVVKSKDRINIRIIYTGFLVGLASGFLGIGGGFLIVPALLFSTSMSIISAIGTSLISVGTFGLSTALTYASYGEIDYILSLILLAGGVGGGYIGTLLASKSPRSTLRKVFGVVLIVVAIYIIYRNLLL | failed
18 | MTIHDNTLFSADERSRFLSSYASLIRTLAPDRQLVKKVRSLLSRFTELGCFDRDKNGMHGLLRNMEVARIASCEIGLGIEAIGALLFYRPAMKGLTRPEEIAELMGEDVARLIDLLLKTSEIYMRNTAINTANFEHFLLSIAEDIRVVLLIIADRSYLLRQAKDMVCAEERTALAAEVSYLYAPLAHRLGLYAIKSEMEDLCLKYTDRQTFDFIKRKLGETKRSRDAYIEAFIAPLRRRLDEALPNIPYEMKGRTKSINSIRNKLRQQGIEFESIYDLFAIRIILDVPVKDEKAACWHVYSIITDMYQPNPQRMKDWISIPKSNGYESLHVTVMGPQNRWVEVQIRSRRMDEVAERGLAAHWKYKGIKSESGLDEFLTSVRETLEARDHSSDDSAETVKNFKMNLFTDEIYAFTPTGELIKLPQGASVLDFAFAIHSRIGCQAVGANVNGKNVPLKHKLENGDSVSIITSAQQTPKKDWLSYVVSSKARNKIKQQLRLQMESSIGVVKELLNRRLKNRKLPFEEAVFTRVVRRKGFKHLTDFYMEIAADRLDVQEVLELYSHELEEEQRRDAGSGAARRSADTFVAHPPKEEEIVKGGKSDVLVIDNNMTGVEYSFGKCCNPIYGDSVFGFVSNSGIKIHRTDCPNAPDMFSRYGYRIIEARWSGKGSTGYEATLHVIGQDNLAIVTNITSVINKEPGVSLRAYSINSKDNLFEGVFTVEVPDTSTLSILLRKIRATHGVKSAERH | failed
19 | MRRPAVTAGPAHVLQRPVKPDLSAILHCVQNCTGCRTVRQARPQRGDQIRVTFLCILSSVFPNDQTDHLRSVRPSGFRYRPRHLNSGLAPLPGTLLEEVSMRNPVLTVTPLALTLILSAAGAQSLQAAQSLYDQGKWQEAATAAAALKTSDGYALAAEATTNGAGLVADSQKKALFAKAQDYAKQAIAADKNNPEAYFELARAQGRLAQFSGILQSLGMAKDMKQNLDTAIKLKPNMASAYVALGLWNANLDSKGAIARSATGASKAQVVPNFEKAIALEANTPIHRVEYANALLLQGNKAGARAQLEKAAGMGADNFWEKRDVATAQAMLAKLK | failed
20 | MNIQLNGQCRCIPETSSIAGLLAEEGFSERRVAVEVNGEIVPRTLHVNYVLREGDRVEIVHALGGG | failed
21 | MLFLDSVAMKEKPEGREEYPFSVPAMRHLERLEFKTPITFFAGNNGSGKSTLLEGLAAGMTAYAIGNHGDVKGDLYLQHAETVAKAFYFARKKYPKIRMFLRAEDVLGYIRRQNENALDDFRWEREKALKKGEDFPEETPEIFRGIVRNNSLDRRSHGEGFLDIMHRRLHGAGLYFLDEPESPLSPQKQLELAAIIRQAADSGGQLIIATHSPVLLAIPEATIYYFDEDGITERLYDELENIAFLRRFLDRPSKYLDDLEHHHHHH | not failed
22 | RTEVVAVALDTSLEELKGRFVESGISKIIVYDGNIDNVVGYIHSSEMFRSPKDWRNHVKEVPIVPETMAAHKLMKLFMQQKKTIAVVVDEFGGTSGIVSLEDLVEEIFGDIEDEHDNTSYICKQIGE | not failed
